The supplement of paper PMC9170038

System: MS2 coat protein
Experiment: apparent KD of MS2 coat protein, switch ON state; designed switch direction (-1 OFF switch, 1 ON switch): -1; higher = weaker reporter binding
Settings: FMN input: 0 or 200 uM; Eterna round: R93 (includes R88 designs)
In short: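 Designed RNA switches were transcribed on-chip from Illumina sequencing clusters. They were then titrated with SNAP-549-labelled MS2 coat protein (twofold steps, 0.7 or 1.5 nM to 3 µM; 0.8–1.5 h to 10–20 min per step) in 100 mM Tris-HCl pH 7.5, 80 mM KCl, 4 mM MgCl2, without or with constant ligand. Apparent KD is the per-design median of normalised cluster binding-curve fits.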

Q: For “AACAGUACAGGAUAUACAUGAGGAUCACCCAUGUAAAAAAGGGCUGGCGUACCAGAAAGUAGAAGGGUACUGGA [Moding Maslow revisited (73) 9]”, which “apparent KD of MS2 coat protein” value is on record?
A: 30.6 nM

Q: For “GAAAAGUGAGGAUAUAGCAAAGGUCACGAAAGUGACAAAGGCUAGAAGGCACAUGAGGAUCACCCAUGUCCAAG [Mat - Exclusion 4 - Eli mod - D99]”, which “apparent KD of MS2 coat protein” value is on record?
A: 20.3 nM

Q: With “AAGAACCGAGGAUAUACAUGAAAGAAAGAAAAGAAAAGAAAACAUGAGGAUCACCCAUGUAGAAGGCGGAAGAA [EteRNA is fun!]” as the sequence, how does the “apparent KD of MS2 coat protein” value read?
A: 27.4 nM

Q: For “AUAGGCCUAGGAUAUACAUGAGGAUCACCCAUGUUAACACUGCAAUCAAGUUAAUAUUGUAGAAGGAGGAAUAA [JR_Exc003_Sub310]”, which “apparent KD of MS2 coat protein” value is on record?
A: 26.3 nM

Q: How did the “apparent KD of MS2 coat protein” value turn out when “AAAAAACAUGAGGAUCACCCAUGUAAGGAUAUGUAAAAUAAAAGAAAAAUAAAGAAAAGCAGAAGGUACAAAAA [JL wbt mod 19]” was run?
A: 25.9 nM

Q: For “AGCUAGUCAGGAUAUACGAAAAUGUCAGAAGCUGAGAAGGGACAUGAGGAUCACCCAUGUAGAAGGGACUAGCA [Diamond 37]”, which “apparent KD of MS2 coat protein” value is on record?
A: 70.2 nM

Q: With “CUGCAGUAAGGAUAUACAUGAGGAUCACCCAUGUAGGAACUUACAGAACGAAACGCAUGUAGAAGGUACCAGAA [Enususge]” as the sequence, how does the “apparent KD of MS2 coat protein” value read?
A: 14.2 nM

Q: For “AAGAACACAGGAUAUACAUGAGGAUCACCCAUGUAAAAGAAAGAAAGGGAAAAGAAAAGUAGAAGGGUGAAGAA [Aakheperre Pasebakhenniut I]”, which “apparent KD of MS2 coat protein” value is on record?
A: 40 nM

Q: For “AAGGGACAUGAGGAUCACCCAUGUCAGGAUAUGAUGCGAAUAAAGAAAGAAUAAAGCAUCAGAAGGGACAAAAA [Mat - Exclusion 1 - Eli mod - D63]”, which “apparent KD of MS2 coat protein” value is on record?
A: 35.6 nM

Q: How did the “apparent KD of MS2 coat protein” value turn out when “AAAGGACGAGGAUAUACAUGAGGAUCACCCAUGUAAAAAACAUAAAAAAAGAAAUUAUGUAGAAGGCGUCCAAA [69%, Moding Meechl, 4]” was run?
A: 18.1 nM

Q: With “AACUAGCUAGGAUAUACAUGAGGAUCACCCAUGUAAAAAAAAAAAAAAAGAUUUAUAUGUAGAAGGAGCUAGUA [Design 3 - Brourd - Exclusion 3]” as the sequence, how does the “apparent KD of MS2 coat protein” value read?
A: 31.6 nM

Q: For “GUAAACCUAGGAUAUACAUGAGGAUCACCCAUGUAAAAUUUCAUAAAAAGAAAAUCAAGUAGAAGGAGGUAGAU [JR_Exc003_Sub1223]”, which “apparent KD of MS2 coat protein” value is on record?
A: 17.3 nM

Q: For “AGCAAACAUGAGGAUCACCCAUGUUAGGAUAUGAACGAAAAUAAAUAAAAAUAAAAGUUCAGAAGGGACGAGCA [66%, Wbt, 28]”, which “apparent KD of MS2 coat protein” value is on record?
A: 28.1 nM

Q: Which “apparent KD of MS2 coat protein” value does the source give for “AUAAAACAUGAGGAUCACCCAUGUGAGGAUAUGCGAAAGAAAGAAAGAAAGAAAGAAAGCAGAAGGCACAAUAA [Amethyst 42]” here?
A: 30.1 nM

Q: “AGCAAGAGAGGAUAUACAUAGGAAAAAAAAGUCAGAUCCCUACAUGAGGAUCACCCAUGUAGAAGGCUCUGGCA [Ex2 Design 154: Sub-opt 18]” was tested. Which “apparent KD of MS2 coat protein” value did it give?
A: 15.1 nM

Q: For “AAGACUAGAGGAUAUACAUGAGGAUCACCCAUGUAACUGUCAGGUGACUGACGGAGAAGUAGAAGGCUAGUCAA [Mat - Exclusion 3 - JL mod - D83]”, which “apparent KD of MS2 coat protein” value is on record?
A: 14.6 nM

Q: Which “apparent KD of MS2 coat protein” value does the source give for “AAAGGACGAGGAUAUACAUGAGGAUCACCCAUGUAAAGGGCAUAAAAAAAGAACUUAUGUAGAAGGCGUCCAAA [Mat - Exclusion 3 - Eli mod - D95]” here?
A: 35 nM

Q: “AAAACUGGAGGAUAUACGUACAUGUCGAAAGACGUGAAGGGACAUGAGGAUCACCCAUGUAGAAGGCUAGAAAA [Mat - Exclusion 2 - JL mod - D71]” was tested. Which “apparent KD of MS2 coat protein” value did it give?
A: 53.1 nM

Q: For “GGAGUGCAAGGAUAUACAUGAGGAUCACCCAUGUGAGAGAAAAAAGUGAGAAAGAAAAGUAGAAGGUGCGUUCG [salish99-ex3-131]”, which “apparent KD of MS2 coat protein” value is on record?
A: 29.2 nM

Q: Which “apparent KD of MS2 coat protein” value does the source give for “AGGCUCCUAGGAUAUACUGGCUGGCCUCCACAAAAGAAAAUACAUGAGGAUCACCCAUGUAGAAGGAGGAGUGG [Geesar]” here?
A: 19.3 nM

Q: Which “apparent KD of MS2 coat protein” value does the source give for “UAAAAACAUGAGGAUCACCCAUGUGAGGAUAUCGAAAAAAAAAAAUUAAAAAAGGAAGCGAGAAGGUACGGGAU [close, no cigar]” here?
A: 33.3 nM

Q: For “AGGUACCUAGGAUAUACAUGAGGAUCACCCAUGUCACAAAUAAAACACAGGUAUCCUGGUAGAAGGAGGAACAA [Veinle]”, which “apparent KD of MS2 coat protein” value is on record?
A: 24.1 nM

Q: How did the “apparent KD of MS2 coat protein” value turn out when “CAAAGGUGAGGAUAUGCAUAACUAUGACGAAAGUCAUAAACACAUGAGGAUCACCCAUGUAGAAGGCACCACAA [e2-2]” was run?
A: 37.2 nM

Q: For “AGUCGGCGAGGAUAUACAUGAGGAUCACCCAUGUGAGAGAAAAAAGUGAGCAAGAAAAGUAGAAGGCGCUGACA [JL Lego Mod 2]”, which “apparent KD of MS2 coat protein” value is on record?
A: 54.2 nM

Q: For “GGUUGGCGAGGAUAUACAUGAGGAUCACCCAUGUGAGAGAAAAAAGUGAGAUAGAAAAGUAGAAGGCGCUGACG [salish99-ex3-34]”, which “apparent KD of MS2 coat protein” value is on record?
A: 58.8 nM

Q: How did the “apparent KD of MS2 coat protein” value turn out when “AAGAAGUGAGGAUAUACAUGAGGAUCACCCAUGUAAAAGAAAGAAAGGGAAAAGAAAAGUAGAAGGCGCAAGAA [Aakheperre Shoshenq V]” was run?
A: 34.1 nM

Q: With “AAGAAGUAAGGAUAUGCUGCUCGUCACAAAAGUGAUGAGUAGCAGAAGGUACAUGAGGAUCACCCAUGUAAAGA [JL eternac mod 3]” as the sequence, how does the “apparent KD of MS2 coat protein” value read?
A: 26 nM

Q: How did the “apparent KD of MS2 coat protein” value turn out when “AAGAACCUAGGAUAUACAUGAGGAUCACCCAUGUAAAAGAAAGAAAAGGGAAAGAAAAGUAGAAGGAGGAAGAA [Menmire-setpenre Amenmesse]” was run?
A: 18.4 nM

Q: For “AGAAAGUCAGGAUAUGCAGACAAAGCAAAAAAGCAAUGUCUGCAGAAGGGACAUGAGGAUCACCCAUGUAAAGA [Mat - Exclusion 4 - Mayanna - D117]”, which “apparent KD of MS2 coat protein” value is on record?
A: 50.3 nM

Q: How did the “apparent KD of MS2 coat protein” value turn out when “AGAAAGUCAGGAUAUACGAAUAAGAAUAAAGACGAGAACGGACAUGAGGAUCACCCAUGUAGAAGGGACAAGAA [Diamond 16]” was run?
A: 51.6 nM

Q: “AAAAGUAGAGGAUAUACAUGAGGAUCACCCAUGUAGAAAGGAAGUGUAUAUAUGGCAUGUAGAAGGCUACAUGA [Banishment 8 - Jieux - Exclusion 3]” was tested. Which “apparent KD of MS2 coat protein” value did it give?
A: 27.4 nM

Q: How did the “apparent KD of MS2 coat protein” value turn out when “AUCUAGUCAGGAUAUGACUACAUAAAAAAAAAAAAAUGUAGUCAGAAGGGACAUGAGGAUCACCCAUGUACUAA [HSL_Exclusion 4 64% 1]” was run?
A: 37.3 nM

Q: Which “apparent KD of MS2 coat protein” value does the source give for “AAAAAGUGAGGAUAUGCGCUGUCAAGUAGACACGAGCAGUCGUAGAAGGCACAUGAGGAUCACCCAUGUUCAAA [EX4 Malc#22]” here?
A: 25.4 nM

Q: With “AAAAAGUUAGGAUAUACAUGAGGAUCACCCAUGUACACAUAUGGAGAAUAUGGUAGUAGUAGAAGGGACAAAAA [EX2 Malc#15]” as the sequence, how does the “apparent KD of MS2 coat protein” value read?
A: 27.1 nM

Q: For “UGUUGGCGAGGAUAUACAUGAGGAUCACCCAUGUGAGAGAAAAAAGUGAGAAAGAAAAGUAGAAGGCGCUGACC [salish99-ex3-10]”, which “apparent KD of MS2 coat protein” value is on record?
A: 68.5 nM

Q: For “AAAAAACAUGAGGAUCACCCAUGUAAGGAUAUGCCAACAAACAAACAAACAAAAAAAAGCAGAAGGUACAAAAA [Amethyst 70]”, which “apparent KD of MS2 coat protein” value is on record?
A: 19.8 nM

Q: Which “apparent KD of MS2 coat protein” value does the source give for “ACUAAUGAAGGAUAUACAAACAACAAACACUCAACACACACACAUGAGGAUCACCCAUGUAGAAGGUCAAACAU [JR_Exc002_Sub1204]” here?
A: 19.2 nM

Q: With “AAAAAACAUGAGGAUCACCCAUGUGAGGAUAUCCAAAAGAAAAGAAAAGAAAGAAGAAGGAGAAGGCACAAGAA [Khufu]” as the sequence, how does the “apparent KD of MS2 coat protein” value read?
A: 55.2 nM

Q: “AAAAAACAUGAGGAUCACCCAUGUGAGGAUAUGGAAAGAAAAAAAAAGAAAGAAAAAACCAGAAGGCACAAAAA [Amethyst 30]” was tested. Which “apparent KD of MS2 coat protein” value did it give?
A: 42.8 nM

Q: How did the “apparent KD of MS2 coat protein” value turn out when “AUAAACGGAGGAUAUACAUGAGGAUCACCCAUGUAAAUAAAUAAAAGUUCCUCAAUAAGUAGAAGGUCGAAUAA [JR_Exc003_Sub011]” was run?
A: 12.8 nM

Q: “UGCAUGUAAGGAUAUGCAACCGGCGCACAUUAGCAGGUCAAGCAGAAGGUACAUGAGGAUCACCCAUGUGUCCG [Lalebiis]” was tested. Which “apparent KD of MS2 coat protein” value did it give?
A: 26.9 nM

Q: With “AGCACGUCAGGAUAUACGAACAAAACGGGAGAACUAAAGGGACAUGAGGAUCACCCAUGUAGAAGGGACAAGCA [Diamond 91]” as the sequence, how does the “apparent KD of MS2 coat protein” value read?
A: 85.6 nM

Q: Which “apparent KD of MS2 coat protein” value does the source give for “AGUUGGCGAGGAUAUACAUGAGGAUCACCCAUGUGAGAGAAAAAAGUGGAAAAGAAAAGUAGAAGGCGCUGACA [Mat - Exclusion 3 - Lego mod - D90]” here?
A: 39.4 nM

Q: For “AACUGUACAGGAUAUACAUGAGGAUCACCCAUGUGAGAAUUAAGUGGCGUACCACAAAGUAGAAGGGUACAGGA [Mat - Exclusion 3 - JL mod - D15]”, which “apparent KD of MS2 coat protein” value is on record?
A: 36.4 nM

Q: With “AAGAAGAGAGGAUAUACUAAAGAAAUGAAAAGAAAGAAAGAACAUGAGGAUCACCCAUGUAGAAGGCUCAAGAA [Snaaib]” as the sequence, how does the “apparent KD of MS2 coat protein” value read?
A: 27.8 nM
